Values of other authors, collected in US20070264667A1, “Method and system for assaying transferase activity” (priority 2003, published 2007).

What was measured:
[1] = target: IRK (Homo sapiens, UniProt P06213); settings: competitive inhibitor of IRK; ref (20); read-out: reported Km
[2] = target: EGF receptor kinase (Homo sapiens, UniProt P00533); settings: ref (22)
EGF receptor kinase, sequence (P00533 25-1210): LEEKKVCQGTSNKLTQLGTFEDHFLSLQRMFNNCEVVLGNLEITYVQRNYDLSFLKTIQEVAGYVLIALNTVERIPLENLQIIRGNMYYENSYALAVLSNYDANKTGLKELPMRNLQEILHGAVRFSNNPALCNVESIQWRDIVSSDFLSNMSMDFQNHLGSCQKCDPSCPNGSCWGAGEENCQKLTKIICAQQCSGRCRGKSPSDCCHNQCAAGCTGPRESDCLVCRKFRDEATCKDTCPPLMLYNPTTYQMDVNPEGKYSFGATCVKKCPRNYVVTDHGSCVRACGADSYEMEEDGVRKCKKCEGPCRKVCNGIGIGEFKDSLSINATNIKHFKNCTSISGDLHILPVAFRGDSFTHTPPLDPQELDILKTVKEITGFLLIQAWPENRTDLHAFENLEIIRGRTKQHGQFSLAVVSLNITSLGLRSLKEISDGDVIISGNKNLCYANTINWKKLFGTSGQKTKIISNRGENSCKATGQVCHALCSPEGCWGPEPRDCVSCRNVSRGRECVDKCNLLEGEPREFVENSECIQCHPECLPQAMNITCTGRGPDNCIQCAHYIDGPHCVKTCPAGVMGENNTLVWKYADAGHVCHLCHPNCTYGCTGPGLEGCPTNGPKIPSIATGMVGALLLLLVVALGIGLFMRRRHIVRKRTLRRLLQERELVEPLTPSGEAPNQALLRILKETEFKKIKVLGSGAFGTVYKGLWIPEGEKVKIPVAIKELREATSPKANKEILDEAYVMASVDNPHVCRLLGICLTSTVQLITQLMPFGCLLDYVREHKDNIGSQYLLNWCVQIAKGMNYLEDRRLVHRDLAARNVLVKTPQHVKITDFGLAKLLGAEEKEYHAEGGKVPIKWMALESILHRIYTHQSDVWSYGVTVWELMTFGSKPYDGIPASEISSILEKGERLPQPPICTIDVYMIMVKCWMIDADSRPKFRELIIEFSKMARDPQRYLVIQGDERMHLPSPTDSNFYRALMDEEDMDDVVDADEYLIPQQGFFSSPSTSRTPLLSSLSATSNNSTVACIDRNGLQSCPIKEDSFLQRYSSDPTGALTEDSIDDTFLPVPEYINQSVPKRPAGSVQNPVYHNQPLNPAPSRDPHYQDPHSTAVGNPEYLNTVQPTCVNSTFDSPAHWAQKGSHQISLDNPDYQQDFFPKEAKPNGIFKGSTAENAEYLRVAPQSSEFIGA

## 1RS727: peptide inhibitor of IRK with the sequence KKKLPATGDYMNMSPVGD
[1]
  Km: ~24 µM

## O=C(O)c1cc(N(Cc2ccccc2O)Cc2cc(O)ccc2O)ccc1O [Lavendustin A]
[2]
  Ki: 11 nM
